Data from patent US20240018502A1.
Changes are numbered by the printed parent chain. In names and notes the source's numbering stands.

B1: MTSP-1 H40R/I41H/F97D/F99L/C122S/G151N/Q175M/Q192A/D217N/K224R (enzyme)
chain: VVGGTDADEGEWPWQVSLHALGQGRHCGASLISPNWLVSAAHCYIDDRGFRYSDPTQWTAFLGLHDQSQRSAPGVQERRLKRIISHPFFNDDTLDYDIALLELEKPAEYSSMVRPISLPDASHVFPAGKAIWVTGWGHTQYGGTNALILQKGEIRVINQTTCENLLPQMITPRMMCVGFLSGGVDSCAGDSGGPLSSVEADGRIFQAGVVSWGNGCAQRNRPGVYTRLPLFRDWIKENTGV
B2: MTSP-1 H40R/I41H/F97D/F99L/C122S/G151N/Q175L/Q192A/D217N/K224R (enzyme)
chain: B1 chain with M169L
B3: MTSP-1 H40K/I41M/F97D/F99L/C122S/G151N/Q175M/Q192D/D217N/K224R (enzyme)
chain: B1 chain with R25K, H26M, A188D
B4: MTSP-1 H40K/I41M/F97D/F99L/C122S/G151N/Q175L/Q192A/D217N/K224R (enzyme)
chain: B1 chain with R25K, H26M, M169L
B5: MTSP-1 H40R/I41H/F97D/F99L/C122S/Q175M/Q192D/D217N/K224R (enzyme)
chain: B1 chain with N145G, A188D
B6: MTSP-1 H40R/I41H/F97D/F99L/C122S/Q175M/D217N/K224R (enzyme)
chain: B1 chain with N145G, A188Q
B7: MTSP-1 H40K/I41M/F97D/F99L/C122S/Q175M/Q192D/D217N/K224R (enzyme)
chain: B1 chain with R25K, H26M, N145G, A188D
B8: MTSP-1 H40K/I41M/F97D/F99L/C122S/G151N/Q175M/Q192A/D217N/K224R (enzyme)
chain: B1 chain with R25K, H26M
B9: MTSP-1 H40K/I41M/F97D/F99L/C122S/Q175M/D217N/K224R (enzyme)
chain: B1 chain with R25K, H26M, N145G, A188Q
B10: MTSP-1 H40R/I41H/F97T/ins97aE/T98G/F99L/C122S/Q175L/Q192E (enzyme)
chain: VVGGTDADEGEWPWQVSLHALGQGRHCGASLISPNWLVSAAHCYIDDRGFRYSDPTQWTAFLGLHDQSQRSAPGVQERRLKRIISHPFFNDTEGLDYDIALLELEKPAEYSSMVRPISLPDASHVFPAGKAIWVTGWGHTQYGGTGALILQKGEIRVINQTTCENLLPQLITPRMMCVGFLSGGVDSCEGDSGGPLSSVEADGRIFQAGVVSWGDGCAQRNKPGVYTRLPLFRDWIKENTGV
B11: MTSP-1 H40R/I41H/F97T/ins97aE/T98G/F99L/C122S/Q175L/Q192G (enzyme)
chain: B10 chain with E189G
B12: MTSP-1 H40R/I41H/F97E/ins97aE/T98G/F99L/C122S/Q175L/Q192G (enzyme)
chain: B10 chain with T92E, E189G
B13: MTSP-1 H40R/I41H/F97D/F99L/C122S/G151N/Q192H (enzyme)
chain: B1 chain with M169Q, A188H, N214D, R221K
B14: MTSP-1 H40R/I41H/F97D/F99L/C122S/G151N/L153R (enzyme)
chain: B1 chain with L147R, M169Q, A188Q, N214D, R221K
B15: MTSP-1 H40R/I41H/F97D/C122S/G151N/L153R/V202M (enzyme)
chain: B1 chain with L94F, L147R, M169Q, A188Q, V198M, N214D, R221K
B16: MTSP-1 H40R/I41H/F97D/F99L/C122S/G151N/Q192H/P232S (enzyme)
chain: B1 chain with M169Q, A188H, N214D, R221K, P229S
B17: MTSP-1 H40R/I41H/F97D/ins97aE/T98G/F99L/C122S/Q175L/Q192G (enzyme)
chain: B10 chain with T92D, E189G
B18: MTSP-1 H40R/I41H/F97D/C122S/G151N/L153R (enzyme)
chain: B1 chain with L94F, L147R, M169Q, A188Q, N214D, R221K
B19: MTSP-1 H40K/I41M/F99L/C122S/T150A/G151R/Q192G (enzyme)
chain: B1 chain with R25K, H26M, D92F, T144A, N145R, M169Q, A188G, N214D, R221K
B20: MTSP-1 H40R/I41H/F97D/C122S/G133D/G151N (enzyme)
chain: B1 chain with L94F, G128D, M169Q, A188Q, N214D, R221K
B21: MTSP-1 I41R/F99L/C122S/Q192G (enzyme)
chain: B1 chain with R25H, H26R, D92F, N145G, M169Q, A188G, N214D, R221K
B22: MTSP-1 H40R/I41H/F99L/C122S/G151K/Q192G (enzyme)
chain: B1 chain with D92F, N145K, M169Q, A188G, N214D, R221K
B23: MTSP-1 I41R/ins97aE/F97T/T98G/F99L/C122S/G151E/Q175L/Q192E (enzyme)
chain: B10 chain with R25H, H26R, G146E
B24: MTSP-1 K86R/K110R/C122S/K134R/K157R/K224R/K239R (enzyme)
chain: VVGGTDADEGEWPWQVSLHALGQGHICGASLISPNWLVSAAHCYIDDRGFRYSDPTQWTAFLGLHDQSQRSAPGVQERRLRRIISHPFFNDFTFDYDIALLELERPAEYSSMVRPISLPDASHVFPAGRAIWVTGWGHTQYGGTGALILQRGEIRVINQTTCENLLPQQITPRMMCVGFLSGGVDSCQGDSGGPLSSVEADGRIFQAGVVSWGDGCAQRNRPGVYTRLPLFRDWIRENTGV
B25: MTSP-1 H40R/I41H/K86R/F97D/K110R/C122S/K134R/G151N/K157R/K224R/K239R (enzyme)
chain: B24 chain with H25R, I26H, F92D, G145N
B26: MTSP-1 K86R/F97T/ins97aE/T98G/F99L/K110R/C122S/K134R/K157R/Q175L/Q192E/K224R/K239R (enzyme)
chain: B10 chain with R25H, H26I, K81R, K106R, K130R, K152R, K222R, K237R
B27: MTSP-1 H40R/I41H/F97D/F99L/C122S/Q175R/Q192G/D217H/K224S (enzyme)
chain: B1 chain with N145G, M169R, A188G, N214H, R221S
B28: MTSP-1 H40R/I41H/F97D/F99L/C122S/Q192G/D217I/K224S (enzyme)
chain: B1 chain with N145G, M169Q, A188G, N214I, R221S
B29: MTSP-1 H40R/I41H/F97D/F99L/C122S/Q192G/D217K/K224A (enzyme)
chain: B1 chain with N145G, M169Q, A188G, N214K, R221A
B30: MTSP-1 H40R/I41H/F97D/F99L/C122S/Q175R/Q192G/D217E/K224R (enzyme)
chain: B1 chain with N145G, M169R, A188G, N214E
B31: MTSP-1 H40R/I41H/F97D/C122S/Q175R/Q192G/D217I/K224Q (enzyme)
chain: B1 chain with L94F, N145G, M169R, A188G, N214I, R221Q
B32: MTSP-1 H40P/I41R/F99L/C122S/Q192G (enzyme)
chain: B1 chain with R25P, H26R, D92F, N145G, M169Q, A188G, N214D, R221K
B33: MTSP-1 H40P/I41R/F99L/C122S/G151K/Q192G (enzyme)
chain: B1 chain with R25P, H26R, D92F, N145K, M169Q, A188G, N214D, R221K
B34: MTSP-1 H40R/I41H/F99L/C122S/G151E/Q192G (enzyme)
chain: B1 chain with D92F, N145E, M169Q, A188G, N214D, R221K
B35: MTSP-1 I41R/ins97aE/F97T/T98G/F99L/C122S/G151D/Q175L/Q192E (enzyme)
chain: B10 chain with R25H, H26R, G146D
B36: MTSP-1 I41R/ins97aE/F97T/T98G/F99L/C122S/G151D/Q175T/Q192E (enzyme)
chain: B10 chain with R25H, H26R, G146D, L170T
B37: MTSP-1 I41R/ins97aE/F97T/T98G/F99L/C122S/G151D/Q175T/Q192D (enzyme)
chain: B10 chain with R25H, H26R, G146D, L170T, E189D
B38: MTSP-1 I41R/ins97aE/F97T/T98G/F99L/C122S/G151E/Q175T/Q192D (enzyme)
chain: B10 chain with R25H, H26R, G146E, L170T, E189D
B39: MTSP-1 H40P/I41R/ins97aE/F97T/T98G/F99L/C122S/Q175L/Q192E (enzyme)
chain: B10 chain with R25P, H26R
B40: MTSP-1 H40P/I41R/ins97aE/F97T/T98G/F99L/C122S/G151D/Q175L/Q192E (enzyme)
chain: B10 chain with R25P, H26R, G146D
B41: MTSP-1 I41R/ins97aE/F97T/T98G/F99L/C122S/G151N/Q175L/Q192E (enzyme)
chain: B10 chain with R25H, H26R, G146N
B42: MTSP-1 I41R/ins97aE/F97T/T98G/F99L/C122S/G151N/Q175L/Q192D (enzyme)
chain: B10 chain with R25H, H26R, G146N, E189D

Molecular target: plasma purified human complement protein C3 (human) (UniProt P01024)
Assay: cell-based or functional assay

Chain of plasma purified human complement protein C3 (human) (P01024 23-667, chain 1 of 2): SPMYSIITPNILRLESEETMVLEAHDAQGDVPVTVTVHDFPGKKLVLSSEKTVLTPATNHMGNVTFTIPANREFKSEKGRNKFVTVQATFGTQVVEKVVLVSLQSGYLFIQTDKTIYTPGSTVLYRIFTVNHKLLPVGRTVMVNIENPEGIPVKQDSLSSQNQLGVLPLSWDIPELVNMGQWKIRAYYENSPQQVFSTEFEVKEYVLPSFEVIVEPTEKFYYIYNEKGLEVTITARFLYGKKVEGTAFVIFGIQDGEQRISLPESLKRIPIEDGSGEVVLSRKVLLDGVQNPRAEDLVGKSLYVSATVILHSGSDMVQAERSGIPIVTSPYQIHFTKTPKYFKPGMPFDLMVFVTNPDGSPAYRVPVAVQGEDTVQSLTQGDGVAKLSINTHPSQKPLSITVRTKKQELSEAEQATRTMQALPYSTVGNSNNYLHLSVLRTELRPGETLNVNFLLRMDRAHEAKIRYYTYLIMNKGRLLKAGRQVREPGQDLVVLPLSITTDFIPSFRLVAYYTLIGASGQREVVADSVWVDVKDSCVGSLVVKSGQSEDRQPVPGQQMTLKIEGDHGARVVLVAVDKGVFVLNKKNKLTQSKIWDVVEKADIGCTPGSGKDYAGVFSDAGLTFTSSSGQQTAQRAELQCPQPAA
Chain of plasma purified human complement protein C3 (human) (P01024 672-1663, chain 2 of 2): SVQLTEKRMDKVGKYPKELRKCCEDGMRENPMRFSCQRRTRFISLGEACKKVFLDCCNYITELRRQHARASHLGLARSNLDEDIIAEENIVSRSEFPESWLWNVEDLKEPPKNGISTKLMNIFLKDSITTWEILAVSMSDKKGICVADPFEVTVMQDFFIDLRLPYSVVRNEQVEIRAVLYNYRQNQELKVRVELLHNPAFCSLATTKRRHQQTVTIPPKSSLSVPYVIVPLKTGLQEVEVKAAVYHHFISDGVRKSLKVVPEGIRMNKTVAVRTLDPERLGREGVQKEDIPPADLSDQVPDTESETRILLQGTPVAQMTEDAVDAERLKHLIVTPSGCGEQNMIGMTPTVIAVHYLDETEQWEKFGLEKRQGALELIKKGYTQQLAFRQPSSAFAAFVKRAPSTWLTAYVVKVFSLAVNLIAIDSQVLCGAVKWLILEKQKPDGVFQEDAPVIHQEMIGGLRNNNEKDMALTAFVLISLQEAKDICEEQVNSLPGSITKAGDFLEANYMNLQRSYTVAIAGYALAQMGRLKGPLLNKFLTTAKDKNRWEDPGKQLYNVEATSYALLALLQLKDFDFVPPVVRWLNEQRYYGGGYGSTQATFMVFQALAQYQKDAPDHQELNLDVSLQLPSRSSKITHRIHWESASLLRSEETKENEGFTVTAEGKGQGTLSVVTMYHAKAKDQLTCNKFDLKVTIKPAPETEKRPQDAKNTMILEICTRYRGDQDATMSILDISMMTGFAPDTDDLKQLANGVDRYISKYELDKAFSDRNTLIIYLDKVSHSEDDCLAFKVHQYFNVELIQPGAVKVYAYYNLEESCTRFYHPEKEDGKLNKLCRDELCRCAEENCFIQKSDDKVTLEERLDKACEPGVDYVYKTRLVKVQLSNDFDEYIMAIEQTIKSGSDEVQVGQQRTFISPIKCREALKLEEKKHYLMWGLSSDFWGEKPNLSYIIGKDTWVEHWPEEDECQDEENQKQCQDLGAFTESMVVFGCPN

Binder | EC50 of hC3 cleavage
B1 | 563 nM
B2 | 540 nM
B3 | 9.74 nM
B4 | 1290 nM
B5 | 9990 nM
B6 | 103 nM
B7 | 9.64 nM
B8 | 1230 nM
B9 | 144 nM
B10 | 5860 nM
B11 | 46 nM
B12 | 82.4 nM
B13 | 179 nM
B14 | 59.9 nM
B15 | 103 nM
B16 | 262 nM
B17 | 39.7 nM
B18 | 126 nM
B19 | 110 nM
B20 | 60.4 nM
B21 | 53.8 nM

Binder | EC50 of hC3 cleavage
B22 | 1520 nM
B23 | 126 nM
B24 | 17.3 nM
B25 | 304 nM
B26 | 253 nM
B27 | 45.2 nM
B28 | 19.3 nM
B29 | 23.4 nM
B30 | 31.2 nM
B31 | 93.1 nM
B32 | 62.4 nM
B33 | 96.1 nM
B34 | 829 nM
B35 | 163 nM
B36 | 743 nM
B37 | 1620 nM
B38 | 1770 nM
B39 | 442 nM
B40 | 212 nM
B41 | 311 nM
B42 | 622 nM
